The chains are these.
B1: Phage tail tube protein from Siphoviridae SPR, His6-SUMO-tagged (natural protein, Siphoviridae SPR (phage))
chain: MKTVIQDTADVYFKRKSDGKLVFTAEAQTASFSQAISEEKLRGGIGNKPLYILKSEKEINLTVKNAFFDLEWLAMTQGETIQEETKVKVFDREHGLIVDDTNKVTLKGKPVSDVTFYNKKGLTYKIAVSTDGTYTIPTAFAAAKDKLTAVYQIEKVGRRLAIKASKFSERYEVEYRTIAYNPDTEEVYSDIYIQFPNVSPSGEFEMSLENGNALAPEIKFEALADTDTDEMAVVIEASRDENTAAPVEDTTGSTQSSDLGGTTE
notes: Purified alone it is a hexamer and filaments of hexamers; in the complex with DSR2^H171A it is a monomer at each corner (4:4); The methods say that His6-SUMO-Tube was purified directly, without removal of the tag; also called His6-SUMO-Tube; HisSUMO-Tube; source: E. coli BL21(DE3); not shown: His6, N-terminal, kept; SUMO, N-terminal, kept

For series [1], the target named is DSAD1 (DSR anti-defense 1) from Siphoviridae SPbeta, His6-SUMO-tagged, co-expressed with DSR2 (Siphoviridae SPbeta (phage)) (UniProt Q796A8). Put plainly: cryo-EM structure; DSR2-DSAD1 complex co-expressed and purified, 1.2 mg/mL; 3.49 Å after focus refinement.
The target in series [2] is Bacillus subtilis DSR2, wild type, co-expressed with His6-SUMO-DSAD1 (Bacillus subtilis). The description is as above.
Series [3] deals with the molecule itself. Briefly: SEC + other: cryo-EM 2D class averages; purified His6-SUMO-Tube alone.
Series [4] concerns the molecule itself. Briefly: cryo-EM structure; apo DSR2 tetramer, 1.5 mg/mL, 4.15 Å after focus refinement.
Series [5] deals with the molecule itself. Put plainly: SEC; oligomeric state of purified DSR2, its mutants and the DSR2^H171A-Tube complex; Superdex 200 Increase 10/300 GL, 25 mM Tris-HCl pH 7.5, 150 mM NaCl. (In gel filtration, larger molecules generally elute earlier.)
Series [6] has as its target B1. Briefly: cryo-EM structure; DSR2^H171A-Tube complex co-expressed and purified, 2 mg/mL, 1 mM NAD+ added; 3.58 Å, local refinement 3.08 Å. The note with it: both partners purified.

Five molecules from paper PMC11087589, “Molecular basis of bacterial DSR2 anti-phage defense and viral immune evasion” (Nature Communications, 2024) can be followed below.

As usually defined, the stoichiometry N is the number of molecules, sites or subunits per partner or assembly. On to “Bacillus subtilis DSR2, wild type, co-expressed with His6-SUMO-DSAD1 (enzyme)”, for which the stoichiometry N (DSAD1:DSR2 (2:4)) in series [1] was determined as 0.5. In series [2], the stoichiometry N worked out at 4. Turning to B1, the “stoichiometry N” value in series [3] came to 6.

B2: Bacillus subtilis DSR2 (defense-associated sirtuin 2), wild type, His-tagged, purified alone (enzyme, UniProt P0DXN8 1-1005, looked up)
chain: MVKVDLESKRYGEKLKEVFLMLDNNVVECIKEITESSRNGKLVFFVGAGVSTLSDYPQWWRLVDKYHEELYGSPKKGNYSSDEYLRIPQIFYNVKGEMAFDGILKDFFQVDKPTNPIHDKILAMNPAHVITTNYDNLIDTACWKRGKYFSVISAEEDVANATSSRYLLKVHGDFRKGFKGENVVLKEDDYLNYDQNYPLISNLMKTIIATHTIVFIGYGLGDYNINMLLNWVRKLQKDSFHKPFFIRTDPSPIENETLIYYENKGLRIIDAASLIDSNEYDYLERYSAVMDLLIESQENKFITKDDEVIDYIYGKISPLFALQYIRKIDLKHVFEYDYHFEVNGTVVRHKNKGFGYMERFFELKESCDERSKLSKKQYERFNALFNFFEKNGVICMAKDAGTLNTSIEINSLAYHGKYDVMKKFIEEQSVSIEDDYKKAFFLACLGRWEESYDLYSNIILNSIDESNGCVYYLSQINRYRIYQSITQAVTQFNGLGLLTFGRHYKPFTDEFLARIEREMTNFNIDDLFNGMPFEFQKKYKILEFLSDNQFLYDDTVKLFELTNKVRSEMSEGSYSFGMSSDIVVLLRLYDNLRFLYENCLWSVSFHEFHQYIRNSMSLLIEKAEYERTRDIDELGFSFFGKKSGFFMEYYDFVNISRHFKIDDIKNLERSCSIDKIRFGEQEKIEEYLVGIAEEITKQFSANGMNVVFYTQFISEAKAALYFAKYVKLSEEGLGKIVKALLFYFPERDLDIGKRYVWLERLTKCNELPKSIISIIDDFLVLQAEKHIDQNYSEVSSNGLYSRDYGALIKHFEKNFISKRLSEITLCLTQDKQKQIDFLFKLLPLLSTNAKSHLLSFKSVENINDLMNGIRIGLIDEFTPEHEELIIEYLETRKVNYIVEKEKGIQTFSSNDYMSTFGIWYFLEEINNSKMEEFIGMDDQYDFFVDPENFDYKKFIPSWLKNYNDKLLGKIAGNKHMKHHVIEVLKERVKNSNDKRYLEILMNYFI
notes: Homo-tetramer by cryo-EM and SEC; Cloned into pCDFDuet (BamHI/XhoI); the methods call it His-tagged; also called apo DSR2; apo DSR2 tetramer; source: E. coli BL21(DE3), purified (Ni-NTA, gel filtration on Superdex 200 Increase)
Regarding B2, in series [4], the “stoichiometry N” value worked out at 4.

B3: DSR2^I259S/Y260G (enzyme, Bacillus subtilis, UniProt P0DXN8 1-1005, looked up)
chain: MVKVDLESKRYGEKLKEVFLMLDNNVVECIKEITESSRNGKLVFFVGAGVSTLSDYPQWWRLVDKYHEELYGSPKKGNYSSDEYLRIPQIFYNVKGEMAFDGILKDFFQVDKPTNPIHDKILAMNPAHVITTNYDNLIDTACWKRGKYFSVISAEEDVANATSSRYLLKVHGDFRKGFKGENVVLKEDDYLNYDQNYPLISNLMKTIIATHTIVFIGYGLGDYNINMLLNWVRKLQKDSFHKPFFIRTDPSPIENETLSGYENKGLRIIDAASLIDSNEYDYLERYSAVMDLLIESQENKFITKDDEVIDYIYGKISPLFALQYIRKIDLKHVFEYDYHFEVNGTVVRHKNKGFGYMERFFELKESCDERSKLSKKQYERFNALFNFFEKNGVICMAKDAGTLNTSIEINSLAYHGKYDVMKKFIEEQSVSIEDDYKKAFFLACLGRWEESYDLYSNIILNSIDESNGCVYYLSQINRYRIYQSITQAVTQFNGLGLLTFGRHYKPFTDEFLARIEREMTNFNIDDLFNGMPFEFQKKYKILEFLSDNQFLYDDTVKLFELTNKVRSEMSEGSYSFGMSSDIVVLLRLYDNLRFLYENCLWSVSFHEFHQYIRNSMSLLIEKAEYERTRDIDELGFSFFGKKSGFFMEYYDFVNISRHFKIDDIKNLERSCSIDKIRFGEQEKIEEYLVGIAEEITKQFSANGMNVVFYTQFISEAKAALYFAKYVKLSEEGLGKIVKALLFYFPERDLDIGKRYVWLERLTKCNELPKSIISIIDDFLVLQAEKHIDQNYSEVSSNGLYSRDYGALIKHFEKNFISKRLSEITLCLTQDKQKQIDFLFKLLPLLSTNAKSHLLSFKSVENINDLMNGIRIGLIDEFTPEHEELIIEYLETRKVNYIVEKEKGIQTFSSNDYMSTFGIWYFLEEINNSKMEEFIGMDDQYDFFVDPENFDYKKFIPSWLKNYNDKLLGKIAGNKHMKHHVIEVLKERVKNSNDKRYLEILMNYFI
notes: Dimer by SEC; also called I259S/Y260G mutant; mutant with disruption at the tetrameric interface; source: E. coli BL21(DE3), purified by a protocol similar to that of the wild type
On to B3, for which the “stoichiometry N” value in series [5] was found to be 2.

B4: DSR2^H171A, catalytic mutant, co-expressed with His6-SUMO-Tube (enzyme, Bacillus subtilis, UniProt P0DXN8 1-1005, looked up)
chain: MVKVDLESKRYGEKLKEVFLMLDNNVVECIKEITESSRNGKLVFFVGAGVSTLSDYPQWWRLVDKYHEELYGSPKKGNYSSDEYLRIPQIFYNVKGEMAFDGILKDFFQVDKPTNPIHDKILAMNPAHVITTNYDNLIDTACWKRGKYFSVISAEEDVANATSSRYLLKVAGDFRKGFKGENVVLKEDDYLNYDQNYPLISNLMKTIIATHTIVFIGYGLGDYNINMLLNWVRKLQKDSFHKPFFIRTDPSPIENETLIYYENKGLRIIDAASLIDSNEYDYLERYSAVMDLLIESQENKFITKDDEVIDYIYGKISPLFALQYIRKIDLKHVFEYDYHFEVNGTVVRHKNKGFGYMERFFELKESCDERSKLSKKQYERFNALFNFFEKNGVICMAKDAGTLNTSIEINSLAYHGKYDVMKKFIEEQSVSIEDDYKKAFFLACLGRWEESYDLYSNIILNSIDESNGCVYYLSQINRYRIYQSITQAVTQFNGLGLLTFGRHYKPFTDEFLARIEREMTNFNIDDLFNGMPFEFQKKYKILEFLSDNQFLYDDTVKLFELTNKVRSEMSEGSYSFGMSSDIVVLLRLYDNLRFLYENCLWSVSFHEFHQYIRNSMSLLIEKAEYERTRDIDELGFSFFGKKSGFFMEYYDFVNISRHFKIDDIKNLERSCSIDKIRFGEQEKIEEYLVGIAEEITKQFSANGMNVVFYTQFISEAKAALYFAKYVKLSEEGLGKIVKALLFYFPERDLDIGKRYVWLERLTKCNELPKSIISIIDDFLVLQAEKHIDQNYSEVSSNGLYSRDYGALIKHFEKNFISKRLSEITLCLTQDKQKQIDFLFKLLPLLSTNAKSHLLSFKSVENINDLMNGIRIGLIDEFTPEHEELIIEYLETRKVNYIVEKEKGIQTFSSNDYMSTFGIWYFLEEINNSKMEEFIGMDDQYDFFVDPENFDYKKFIPSWLKNYNDKLLGKIAGNKHMKHHVIEVLKERVKNSNDKRYLEILMNYFI
notes: source: E. coli BL21(DE3), co-expressed with His6-SUMO-Tube; in lysate (pull-down) and purified as the complex (Ni-NTA, Hitrap Q, gel filtration)
As for B4, the “stoichiometry N” value in series [6] is 1 DSR2:Tube (4:4); in series [5] it was 4.
